Data taken from US20180066318A1 (INSTITUT PASTEUR, published 2018).

Molecular target: T1, in vitro translated HA-tagged NEMO (UniProt Q9Y6K9 1-419)
T1 construct: Negative control in the pull-down; made in TNT reticulocyte lysate; also called HA-NEMO; not shown: HA tag
Experiment: GST pull-down of in vitro translated protein, anti-HA blot
Text: FIGS. 1a-1d: binding of CARMA1 SH3 domain to E-Syt2. GST pull-down assays show direct interaction between E-Syt2 and SH3 domains. Schematic representation of CARMA1 (a) and E-Syt2 (b) mutant constructs. (c) upper panel: pull-down assays of the interactions between CARMA1 SH3 domain (GST-SH3c), Vav SH3 domain (GST-SH3v) or GST and in vitro translated HA-tagged E-Syt2, or NEMO in TNT® reticulocytes lysate systems. Ten percent of the input TNT lysates was also run on the PAGE and immunoblot with anti-HA to determine the relative binding capacity. […] Jurkat T cells were incubated with Raji B cells and coated with medium alone or with SEE. At 10 minutes, cells were fixed and E-SYT2 localized by immunofluorescence and confocal microscopy, using anti-A-SYT2 antibody, as described in the experimental procedure. The corresponding Nomarski images are shown on the bottom panels. Scale Bars represent 1 μm. (d) ESYT2 localized in microclusters Jurkat cells were settle onto glass coverslips coated either with anti-CD3, anti-CD28 or both and fixed 5 min of stimulation. The images of E-Syt2, PKCθ and TCT staining were taken by confocal microscopy.

T1 sequence (Q9Y6K9 whole entry): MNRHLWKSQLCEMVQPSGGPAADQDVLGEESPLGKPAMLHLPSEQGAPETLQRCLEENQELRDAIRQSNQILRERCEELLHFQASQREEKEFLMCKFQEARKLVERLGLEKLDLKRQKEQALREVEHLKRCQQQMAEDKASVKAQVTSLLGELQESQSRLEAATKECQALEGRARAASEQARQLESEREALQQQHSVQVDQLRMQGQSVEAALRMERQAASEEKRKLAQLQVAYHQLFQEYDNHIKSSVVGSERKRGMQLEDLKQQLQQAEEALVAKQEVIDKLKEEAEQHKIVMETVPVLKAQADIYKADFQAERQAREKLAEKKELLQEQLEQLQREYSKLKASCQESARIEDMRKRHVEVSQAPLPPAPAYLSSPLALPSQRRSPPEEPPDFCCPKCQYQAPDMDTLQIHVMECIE

binding result: no binding
B1: GST fused to the Vav SH3 domain (GST-SH3v) (other, UniProt P15498 782-845, looked up)
chain: KYFGTAKARYDFCARDRSELSLKEGDIIKILNKKGQQGWWRGEIYGRVGWFPANYVEEDYSEYC
notes: domain: SH3 (C-ter Vav); also called pGEX-4T-SH3 (C-ter Vav); not shown: glutathione S-transferase of vector pGEX-4T
